± gives the uncertainty stated by the source.
B1: POU domain, class 4, transcription factor 3, residues 185 to 256; numbered along this chain, Q15319 (parent)
chain: RELEAFAERFKQRRIKLGVTQADVGAALANLKIPGVGSLSQSTICRFESLTLSHNNMIALKPVLQAWLEEAE

Variants of: B1
Assay: abundance fitness (aPCA) (normalised: wild type 0, dead -1); higher = more abundant; growth selection in yeast, the domain comes from the species named
Conditions: Homo sapiens
In the case of RELEAFAERFKQRRIKLGVTQADVGAALANLKIPGVGSLSQSTICRFESLTLQHNNMIALKPVLQAWLEEAE [S53Q], the abundance fitness is reported as -0.403 ± 0.14.
In the case of RELEAFAERFKQRRIKLGVTQADVGAALANLKIPGVGSLSQSTICRFESLTLRHNNMIALKPVLQAWLEEAE [S53R], the abundance fitness is reported as -0.229 ± 0.054.
RELEAFAERFKQRRIKLGVTQADVGAALANLKIPGVGSLSQSTICRFESLTLTHNNMIALKPVLQAWLEEAE [S53T] gave an abundance fitness of -0.208 ± 0.11.
For RELEAFAERFKQRRIKLGVTQADVGAALANLKIPGVGSLSQSTICRFESLTLSPNNMIALKPVLQAWLEEAE [H54P], the abundance fitness was 0.102 ± 0.28.
In the case of RELEAFAERFKQRRIKLGVTQADVGAALANLKIPGVGSLSQSTICRFESLTLSYNNMIALKPVLQAWLEEAE [H54Y], the abundance fitness is reported as -0.027 ± 0.38.
RELEAFAERFKQRRIKLGVTQADVGAALANLKIPGVGSLSQSTICRFESLTLSHSNMIALKPVLQAWLEEAE [N55S] showed an abundance fitness of -0.061 ± 0.23.
For RELEAFAERFKQRRIKLGVTQADVGAALANLKIPGVGSLSQSTICRFESLTLSHYNMIALKPVLQAWLEEAE [N55Y], the abundance fitness was -0.161 ± 0.2.
Work on RELEAFAERFKQRRIKLGVTQADVGAALANLKIPGVGSLSQSTICRFESLTLSHNCMIALKPVLQAWLEEAE [N56C] yielded an abundance fitness of -0.036 ± 0.25.
RELEAFAERFKQRRIKLGVTQADVGAALANLKIPGVGSLSQSTICRFESLTLSHNDMIALKPVLQAWLEEAE [N56D] gave an abundance fitness of -0.355 ± 0.41.
For RELEAFAERFKQRRIKLGVTQADVGAALANLKIPGVGSLSQSTICRFESLTLSHNFMIALKPVLQAWLEEAE [N56F], the abundance fitness was -0.628 ± 0.078.
With RELEAFAERFKQRRIKLGVTQADVGAALANLKIPGVGSLSQSTICRFESLTLSHNGMIALKPVLQAWLEEAE [N56G] the abundance fitness was -0.035 ± 0.41.
In the case of RELEAFAERFKQRRIKLGVTQADVGAALANLKIPGVGSLSQSTICRFESLTLSHNIMIALKPVLQAWLEEAE [N56I], the abundance fitness is reported as -0.157 ± 0.21.
With RELEAFAERFKQRRIKLGVTQADVGAALANLKIPGVGSLSQSTICRFESLTLSHNKMIALKPVLQAWLEEAE [N56K] the abundance fitness was -0.109 ± 0.24.
Work on RELEAFAERFKQRRIKLGVTQADVGAALANLKIPGVGSLSQSTICRFESLTLSHNLMIALKPVLQAWLEEAE [N56L] yielded an abundance fitness of 0.105 ± 0.13.
Variant RELEAFAERFKQRRIKLGVTQADVGAALANLKIPGVGSLSQSTICRFESLTLSHNSMIALKPVLQAWLEEAE [N56S] has an abundance fitness of 0.089 ± 0.13.
Variant RELEAFAERFKQRRIKLGVTQADVGAALANLKIPGVGSLSQSTICRFESLTLSHNTMIALKPVLQAWLEEAE [N56T] has an abundance fitness of -0.588 ± 0.43.
Work on RELEAFAERFKQRRIKLGVTQADVGAALANLKIPGVGSLSQSTICRFESLTLSHNWMIALKPVLQAWLEEAE [N56W] yielded an abundance fitness of 0.101 ± 0.21.
RELEAFAERFKQRRIKLGVTQADVGAALANLKIPGVGSLSQSTICRFESLTLSHNYMIALKPVLQAWLEEAE [N56Y] gave an abundance fitness of -0.096 ± 0.28.
With RELEAFAERFKQRRIKLGVTQADVGAALANLKIPGVGSLSQSTICRFESLTLSHNNAIALKPVLQAWLEEAE [M57A] the abundance fitness was -0.173 ± 0.11.
For RELEAFAERFKQRRIKLGVTQADVGAALANLKIPGVGSLSQSTICRFESLTLSHNNGIALKPVLQAWLEEAE [M57G], the abundance fitness was -0.634 ± 0.15.
In the case of RELEAFAERFKQRRIKLGVTQADVGAALANLKIPGVGSLSQSTICRFESLTLSHNNLIALKPVLQAWLEEAE [M57L], the abundance fitness is reported as -0.045 ± 0.42.
For RELEAFAERFKQRRIKLGVTQADVGAALANLKIPGVGSLSQSTICRFESLTLSHNNQIALKPVLQAWLEEAE [M57Q], the abundance fitness was -0.359 ± 0.12.
In the case of RELEAFAERFKQRRIKLGVTQADVGAALANLKIPGVGSLSQSTICRFESLTLSHNNRIALKPVLQAWLEEAE [M57R], the abundance fitness is reported as -0.524 ± 0.089.
For RELEAFAERFKQRRIKLGVTQADVGAALANLKIPGVGSLSQSTICRFESLTLSHNNSIALKPVLQAWLEEAE [M57S], the abundance fitness was -0.156 ± 0.14.
For RELEAFAERFKQRRIKLGVTQADVGAALANLKIPGVGSLSQSTICRFESLTLSHNNTIALKPVLQAWLEEAE [M57T], the abundance fitness was -0.174 ± 0.096.
RELEAFAERFKQRRIKLGVTQADVGAALANLKIPGVGSLSQSTICRFESLTLSHNNVIALKPVLQAWLEEAE [M57V] gave an abundance fitness of -0.259 ± 0.19.
In the case of RELEAFAERFKQRRIKLGVTQADVGAALANLKIPGVGSLSQSTICRFESLTLSHNNMAALKPVLQAWLEEAE [I58A], the abundance fitness is reported as -0.262 ± 0.32.
For RELEAFAERFKQRRIKLGVTQADVGAALANLKIPGVGSLSQSTICRFESLTLSHNNMDALKPVLQAWLEEAE [I58D], the abundance fitness was 0.215 ± 0.45.
RELEAFAERFKQRRIKLGVTQADVGAALANLKIPGVGSLSQSTICRFESLTLSHNNMEALKPVLQAWLEEAE [I58E] gave an abundance fitness of 0.071 ± 0.34.
With RELEAFAERFKQRRIKLGVTQADVGAALANLKIPGVGSLSQSTICRFESLTLSHNNMFALKPVLQAWLEEAE [I58F] the abundance fitness was 0.078 ± 0.14.
RELEAFAERFKQRRIKLGVTQADVGAALANLKIPGVGSLSQSTICRFESLTLSHNNMHALKPVLQAWLEEAE [I58H] showed an abundance fitness of -0.033 ± 0.1.
With RELEAFAERFKQRRIKLGVTQADVGAALANLKIPGVGSLSQSTICRFESLTLSHNNMKALKPVLQAWLEEAE [I58K] the abundance fitness was -0.058 ± 0.12.
For RELEAFAERFKQRRIKLGVTQADVGAALANLKIPGVGSLSQSTICRFESLTLSHNNMLALKPVLQAWLEEAE [I58L], the abundance fitness was 0.094 ± 0.065.
With RELEAFAERFKQRRIKLGVTQADVGAALANLKIPGVGSLSQSTICRFESLTLSHNNMMALKPVLQAWLEEAE [I58M] the abundance fitness was 0.153 ± 0.12.
Work on RELEAFAERFKQRRIKLGVTQADVGAALANLKIPGVGSLSQSTICRFESLTLSHNNMNALKPVLQAWLEEAE [I58N] yielded an abundance fitness of -0.049 ± 0.05.
Variant RELEAFAERFKQRRIKLGVTQADVGAALANLKIPGVGSLSQSTICRFESLTLSHNNMPALKPVLQAWLEEAE [I58P] has an abundance fitness of -1.06 ± 0.26.
Variant RELEAFAERFKQRRIKLGVTQADVGAALANLKIPGVGSLSQSTICRFESLTLSHNNMQALKPVLQAWLEEAE [I58Q] has an abundance fitness of -0.055 ± 0.072.

— the Human Domainome abundance scans (Beltran et al. 2025)
